The results in this text go back to the DeepSol protein solubility set.

The series in a line: soluble on expression in E. coli; label from the status in PepcDB or PDB records.
Consider “MGSSHHHHHHSSGRENLYFQGHMTRSAEPRVLQFCHGYDGPFLDCARQYASLFAGTPYKVTTVFLTGRSDPEVAARCASDEVLFLEYGSRDIRGLKLKAIRDLREIARSRDFRFCIAHRFKPIWIASLATRLPIVGVHHAFGDYQRLSRKVFAGLMSKRLSLLAVSDAVRDDIRRCLPKWPAERIETLYNRIDVAALQAEQVERLSARRQLRLPDEAWVVGNVGRLHPDKDQATLLRGFAAALPRLPQNSLLAILGSGRLEEQLKDLACELGIGERVLFLGQVEEARRYFKAFDAFALSSDHEPFGMVLLEAMVAGVPLIATACGGAREVVEGVGILFPLGDETALAEGLTHLAALDRRQREACARLMLERLETRFSDAAVRREFWRLPTIAGFASESAC”, for which the “soluble on expression in E. coli” value was “soluble”.
For the sequence “SSSSLVEAAAGLPEKGLMVCKWLGTGSAGYGGYKASEYFFPIDNEEFRENLEDWESTLQSWEKLKNYLEGMHKGPVGNQTRTH”, the “soluble on expression in E. coli” value is “soluble”.
“MSLKDNEKYNALDFIKDDEINSLIAKGKELVSDKELVREIIEKSKSAEGLTPEETAVLLNLEDKELIEEMFKAARQVKEKLYGKRLVVFAPLYVSNYCVNNCTYCGYKHCNDELKRKKLNKEQLIEEVKVLESLGHKRIALEAGEDPVNAPLDYILDCIKSIYSIKFDNGSIRRINVNIAATSVEDYKRLKDAEIGTYILFQETYHKPTYERLHVSGPKHNYNYHTTAMHRAREAGIDDIGMGVLYGLYDYKYETLAMLMHAMDLEETTGVGPHTLSVPRIRPAENVSLENYPYLVDDEDFKKIVAILRLAVPYAGLILSTREEPGLRDEIIALGVSQVSTGSCTGVGGYSESYIDPEEKPQFEVGDHRSPVEMIESLMEAGYIPSYCTACYREGRTGERFMDIVKSGELYKICEANALITLKEFIDDYGTDRTREIGDKLIKKSIDEIDNESFRKSVEEKINKISNGTRDLRFEGHHHHHH”: the “soluble on expression in E. coli” value is given as “soluble”.
For “MTTLTLAELATITGGELFGDPTALVSAVAPMDKAQLGHVTFLSNPKYSKHLGDCKATVIMVKTSERELCPSNALVVADPYVAFAKVAQALDSTPSPAHGIAPSAVIAEDAKLGHNVSIGANAVIESGVQLGDNVVIGAGCFIGKQARLGDNTKLWANVTIYHKVEIGSDCLIQSGTVIGADGFGYANERGEWIKIPQLGSVRIGDRVEIGACTTIDRGALDDTVIEDNVIIDNQLQIAHNVHIGYGSALAGGTVIAGSTRIGKYCIIGGASVINGHIEIADGVTITGMGMVMRSIEEKGMYSSGIPLQTNKEWRKTAARVHRIDDMHKRLKALEKLLEQSDTVQPDNSQAE”, the “soluble on expression in E. coli” value is “not soluble”.
“MSDSQEQLISSENTEVDKQAEEDRKLRRLNRRKALALERSPLPVPKLGRVLLSANSTIDLTNEDDDPSNKWFKKTFNAEKIPKLAKSPEEAKLFAVPRKISKNAPKSLLTSETLKKKLQASMSAKRRKEQEQRRKMYEEDNEHLKAGSDEEEEEDVVFKKKKGKKPVNEEEYKSEDDEDYEPENSGEEDSDEKNNGRADDEMSVNLLNDSFTYDVFNNVKRSGPGSTVSNFDSRSEADVVEKNGVVQLPTMTEITGGSNDILNLCPGSFGVSQSAGFPDTLQMLIEEDTTERKINLPQNSTSVSSDKPRLEESESEDEDDVGVKRRLPAVKNHRVLDSDEEDDVIEETLPSQDVFGSGTLEDSETIKEICEKSGEFTEKIETVLEEKTELKRVVLSDGEDSDEEAEEAEEEGDDEEEPEEDDIESENDEAETEGVEAPDPNFDDEDDELAILKRLQHQEYKQKIKKRTLFDDEASLSGDDVGSDLEDEEGMENVYEAEEGDADDVPDNDTIRRQNHKLLLKQENDKEQRELAKLQDRLLADGDLGGVETNRQFRFKLREEVQIQMGDDVDGNDGDGEDDEPEEDEQKKKERAEMIKFKYEHAEELMLLDEPKQGDDMFARAGKLFKKTEKTVIEFSEETMFKPRLSKPSLLSKTTLAVTFQEVLNGPGGAAKQMYVQSFEKPTPLSTGHISSPSSRLSTGKRLLKSPESSASAKRVRSSKLSSLE”: the “soluble on expression in E. coli” value is on record as “not soluble”.
Consider “MGSDKIHHHHHHMIQPRIRQNPFETYEEVAEGFEDLLAPLELFFDREYQGHLDLGTHGTVYSKGTRDAEAFLRPLWGLGPYVTQNESEYLNDFLTGIIEGTDPESSSYWGKTKDYDQLIVEMAALSTFLLLNKEKTWDQLTKEQQNNLHSWLIQANENIIPPNNWHFFRVLLNLAMKHCEMPYSKEQIAVDLAVIDRFYVGNGWYYDGVETQVDYYVSFAIHYYSLLYCRFAPEDTARVAIMKERATLFAQEFKYWFTQPGEAIPFGRSLTYRFAQVSFFSALVFADVEALPWGEIKGLISRHLHQWMNKDIFTTDGLLSVGYDYQNMVFAEGYNGPGSPYWAFKTFILLAVPKDHPYWQAETQPISFPEKHLPSPESRNYYQVNDAGTHGLMFPAGQFINYQAHAHDKYSKFVYSSHFGFSTIKSDYWYYEGAYDNCLALAEDDHYFRTKGLDDQYEILDDRIIHQWHPWSDVAIKTTIVPLEGQHLRIHEIETQRALVAYEGGFSIPLFDEKVTCVSDQMAEVKNAKGVSKVENINGFSEAAIIRTEPNTNLLYPLTELPYLKANLSKGKHLLISLVTGVLPNEQIEPVKVRLKENQLLVEEKVVILGN”, for which the “soluble on expression in E. coli” value is recorded as “not soluble”.
Regarding “MGSDKIHHHHHHMLKHLDNITDCRSHINQEHDVIDICFLVLSAVISGAQSWSACHEFGTLELEWLRKYRPFTNGIPSQQSIGRIFRGVSKQSLLDALMSWVNEYRVNTGQSSIAIDGKVLKGAKASASSAALHMVTAYDTGSGLVFSAKSGASKKSELKLVQELLTCLDLKSELLTFDALHCQSQTLDYIAKEGGDCILQVKGNQPKLYEALQAQFTDYIENNPDAECFTETNKGHGRVEKRITFQCPLNLPAEIKMKWSQLKTLIAVERHRKVGNKTSIDTHFYVSSAVLTSEAFGRAIRAHWQTENNQHWLLDKLFQEDKQKMYDEDGASILAILRRWALNLVKLHPAKTSQTQKFNRACWSDDFREEIIFGTGQKV”, the “soluble on expression in E. coli” value is “not soluble”.
As for “MRDGEGIWGRGRTGGHAHPKEAMHTTFFILGGTMLIGVISDTHLYDRAFELPKAVFDEFSNVDLIIHCGDVTDKEILDSLKDLAKVVAVKGNMDYLNLPRKEILEINDIKIGVIHGDVVYPRGDRLKLRLLGKEMGVDVLISGHTHTPFIDDCRDILLLNPGSPTVPRCPLKSIMKLSVEDKLEAKLIPIEE”, the “soluble on expression in E. coli” value is listed as “soluble”.
The result for “MGSDKIHHHHHHMKSDTEEKYLQQVNRVIDYINSHLNEPLRVETLAREVCLSEYHFHRIMRAYLHEPLATYIARQRVERAVMYLQMKNIRLAQVAEMVGYETPQSLSKAFKQFFGISPTAYRKRRAERYEEFSTLKKESLKPEILTEPELKLVYIRIIGRYGEEEPYIEAWRKLRDFLQINGLLTPSTRWIGISFDDPTVTKTEQCRFYACATVEHDVSPQGAFGMKTIPQGRYAVYTLRGSYSGLQEMYDRIYSHPLPTAFRDATSFEEYLNCEPDTEEKDYVTRIYIPIE” reads “not soluble”; that for “MSLNIVTLISWDFKRNNESFQRAIINGYDYWSRILDDHGVEKYVILLTCNRVELYYRGDPFDVQEKGYNIISDDMAINHLFHVAAGLDSMSIGENEVLKQVKQAYEKSSSMGKSDKFLSLIFQRAISVGKLVRSKTGIGKGKVSIPSIVYDIVRKNGGNKILLVGNGMLASEIAPYFSYPQYKVTVAGRNIDHVRAFAEKYEYEYVLINDIDSLIKNNDVIITATSSKTPIVEERSLMPGKLFIDLGNPPNIERGNNVITLDEIYEISKKNEMLREEKINQAEILIENEMKATMNKIKDLMIDDIFSQFYRFASVVQTMEIQKFRKMHPEVNENDLEALAHSIINKILNVPVTTLKAVSRSQGNSDFNRLFESFSSNFNDIVSAALQSYEGLRDTQSLRDRTRQLLQKSEGHHHHHH”, “soluble”.
For “MSLIKPDHPRLSILRQCALVSLSRSSFYYQEKGESPLNLKLMELIDRQFMETPFYGARQMARHLRNHEGYCVGRKKICRLMAKMGLVPIYQRPRTTKPHPEHVKYPYLLRDLVIDKPNQVWCTDITYIPMRRGFLYLVAIMDWHSRCVLSWRLSNTMEADFCVEALEEALNKFGKPEIFNTDQGSQFTSQSFTETLKEADIKISMDGKGAWTDNVFIERLWRSLKYECVYLHAFETGSKAHHGIGHWIQFYNERRPHSSLGGLSPNSVYETELWSEAAEGHHHHHH”, the “soluble on expression in E. coli” value was “not soluble”.
On to “MRIQFEIKESLINILDQLMHSDFWATEIKEDESGKKIIKIKDLAYNLEAVAEVMGNEIFIRTALSKYTYRIYEVKGECWCEYVGAYRGFLEQKLLPIITPKENLLECEVLDSSILGGKQKTLREYAEDNLKLKKFREQNFGNNGFSKADHPRRVYDEFIKEDFIPEDKKGHSLNITKSAN”, for which the “soluble on expression in E. coli” value is recorded as “not soluble”.
On to “MGSDKIHHHHHHMLKIKTSNLRPGIKLGKDIYSYDSQLLLTSGSTITQEHLDSFARRNIEEVFILDESPRMKPERDFEDVYQDALEVVNSFMVGAMLGSPLDFQEIDKTVDLLREQAFDAIDLFRQMRLMKNKGEYLFTHSINVSLLCILIGRWLKCDRNTIRELGIAGLLHDLGKVFIENDILNKPGKLTDQEYEKIKKHTVLGYNFICQNPDMNLEVANAALMHHERVDGSGYPSGLKGQLNFYAAVVAVADVYDAITSAHSYADKRSPYSAAEILWQESFGKLDARITKVFYDKITNFYVGNKVLLSNKKEGIVIYVDPFQPTRPIVMVEDEFYNLALDRSITIRDIID”, for which the “soluble on expression in E. coli” value is reported as “not soluble”.
Turning to “MKNTTLYTYRDYFVIRGGKPLTGKVKISGAKNAALPIMFATILTEEPCTITNVPDLLDVRNTLLLLRELGAELEFLNNTVFINPSINSFITNQEIIRRMRASVLSLGPLLGRFGRAVVGLPGGCSIGARPIDQHLKFFKEAGADVEVREGYVYVNLKEKRRVHFKFDLVTVTGTENALLYLASVPEESILENIALEPEVMDLIEVLKKMGAHVKVEGRSAYVKGSENLKGFTHSVIPDRIEAGTFMVGAVLTDGEILLENARINHLRAVVEKLKLIGGEVVEENGNLRVFRKESLRACDIETQVYPGFPTDMQAQFMALLSVAKGKSRIKENIFEHRFHHAQELNRLGANITVRGNTAYVEGVERLYGSEVYSTDLRASASLVLAGLVAQGETVVRDVYHLDRGYEKLEEKLKKLGADIERVSEL”, the “soluble on expression in E. coli” value was “soluble”.
“MATPSTGANNSIPAVRNQVEVQVGLVGDAQVGKTSLMVKYVQNIYDKEYTQTLGVNFLKRKVSIRSTDIIFSIMDLGGQREFINMLPIATVGSSVIIFLFDLTRPETLSSIKEWYRQAYGLNDSAIPILVGTKYDLLIDLDPEYQEQISRTSMKYAQVMNAPLIFCSTAKSINIQKIFKIALAKIFNLTLTIPEINEIGDPLLIYKHLGGQQHRHHNKSQDRKSHNIRKPSSSPSSKAPSPGVNT”: the “soluble on expression in E. coli” value is “soluble”.
In the case of “MVSVEDYYTSEEKICDGIFVGNYGERKGSRYLFQIWDKVNEKIDAKLCIIGKGWSEIPKNSVYYGFVTEREKIDLLAKSKVFVFPSLYEGFALAVTEALSAYLPVVTWDLKWSERYPVAIRVTYPDISSFAEEVVKLLKDEKLRKSIGEKSREL”, the “soluble on expression in E. coli” value is on record as “soluble”.
The result for “MSLNDGRLEIFQEGKPGRRIDEDQVFAAVLDALTKPAEQRTVTVAFREIPPPITAANLDQLGITTLIGVGRSDFTGSAAYRVTNIQAGMRLLHGVLIAPGEEFSFNQTIGRIDRSNGFVEGYAIIQNRTQLEWGGGICQDSTTMFRAAFWAGLPITERWGHSFYISWYDRYAFGPYGDGPGMDATIFTGGPDLKFLNDTGGWLLIQTLVDTHRHLAEVRLYGPDTGRKVLLEGPIITNRTEGHHHHHH” reads “not soluble”.
